The test has as its target Calmodulin (recombinant CaM) (UniProt P0DP23). Kind of test: cross-linking; photoaffinity labeling (PAL): 5 μM CaM and 5 μM Bpa-Mover(203-221), 10 mM HEPES pH 7.2, 150 mM KCl, 5 mM DTT, 2 h RT in the dark, with 100 μM Ca2+, UV irradiation; photoadducts read by SDS-PAGE and MALDI-TOF-MS.

On to “Bpa-Mover(203-221), photoreactive variant of the rat Mover peptide 203-221 (from UniProt A8WCF8 203-221)”, for which the stoichiometry N (peptide per CaM) stood at 1.

The record behind these values is publication PMC6856015.
